This note sets out measurements from patent publication US20230070886A1 (NOVAVAX, published 2023).

For the test, the target named is His-tagged human angiotensin-converting enzyme 2 precursor (hACE2) (human, UniProt Q9BYF1 18-740). As to the kind of experiment: bio-layer interferometry. (In general: BLI is a label-free optical method that tracks binding on a fibre tip over time.)
Sequence of His-tagged human angiotensin-converting enzyme 2 precursor (hACE2) (Q9BYF1 18-740 limits assumed): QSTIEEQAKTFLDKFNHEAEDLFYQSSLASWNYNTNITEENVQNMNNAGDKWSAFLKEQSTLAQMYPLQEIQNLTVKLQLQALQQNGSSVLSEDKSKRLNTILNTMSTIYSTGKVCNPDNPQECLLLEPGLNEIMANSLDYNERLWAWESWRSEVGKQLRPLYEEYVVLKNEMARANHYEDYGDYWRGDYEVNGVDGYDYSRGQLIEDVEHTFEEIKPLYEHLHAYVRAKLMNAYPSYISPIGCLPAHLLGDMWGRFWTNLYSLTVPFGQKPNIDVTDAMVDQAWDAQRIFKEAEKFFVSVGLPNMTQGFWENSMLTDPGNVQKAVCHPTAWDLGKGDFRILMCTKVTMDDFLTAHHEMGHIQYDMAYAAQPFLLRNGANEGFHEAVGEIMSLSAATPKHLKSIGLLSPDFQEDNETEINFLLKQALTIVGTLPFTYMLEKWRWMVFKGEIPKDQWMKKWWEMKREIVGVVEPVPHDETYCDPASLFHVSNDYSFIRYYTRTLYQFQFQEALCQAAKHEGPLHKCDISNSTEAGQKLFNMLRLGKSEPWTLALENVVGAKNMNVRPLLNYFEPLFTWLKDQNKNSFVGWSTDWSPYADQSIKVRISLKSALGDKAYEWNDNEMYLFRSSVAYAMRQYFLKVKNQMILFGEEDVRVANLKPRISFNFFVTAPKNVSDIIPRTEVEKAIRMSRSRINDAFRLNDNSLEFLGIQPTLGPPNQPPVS

B1: MERS S protein (other)
chain: YVDVGPDSVKSACIEVDIQQTFFDKTWPRPIDVSKADGIIYPQGRTYSNITITYQGLFPYQGDHGDMYVYSAGHATGTTPQKLFVANYSQDVKQFANGFVVRIGAAANSTGTVIISPSTSATIRKIYPAFMLGSSVGNFSDGKMGRFFNHTLVLLPDGCGTLLRAFYCILEPRSGNHCPAGNSYTSFATYHTPATDCSDGNYNRNASLNSFKEYFNLRNCTFMYTYNITEDEILEWFGITQTAQGVHLFSSRYVDLYGGNMFQFATLPVYDTIKYYSIIPHSIRSIQSDRKAWAAFYVYKLQPLTFLLDFSVDGYIRRAIDCGFNDLSQLHCSYESFDVESGVYSVSSFEAKPSGSVVEQAEGVECDFSPLLSGTPPQVYNFKRLVFTNCNYNLTKLLSLFSVNDFTCSQISPAAIASNCYSSLILDYFSYPLSMKSDLSVSSAGPISQFNYKQSFSNPTCLILATVPHNLTTITKPLKYSYINKCSRFLSDDRTEVPQLVNANQYSPCVSIVPSTVWEDGDYYRKQLSPLEGGGWLVASGSTVAMTEQLQMGFGITVQYGTDTNSVCPKLEFANDTKIASQLGNCVEYSLYGVSGRGVFQNCTAVGVRQQRFVYDAYQNLVGYYSDDGNYYCLRACVSVPVSVIYDKETKTHATLFGSVACEHISSTMSQYSRSTRSMLKRRDSTYGPLQTPVGCVLGLVNSSLFVEDCKLPLGQSLCALPDTPSTLTPRSVRSVPGEMRLASIAFNHPIQVDQLNSSYFKLSIPTNFSFGVTQEYIQTTIQKVTVDCKQYVCNGFQKCEQLLREYGQFCSKINQALHGANLRQDDSVRNLFASVKSSQSSPIIPGFGGDFNLTLLEPVSISTGSRSARSAIEDLLFDKVTIADPGYMQGYDDCMQQGPASARDLICAQYVAGYKVLPPLMDVNMEAAYTSSLLGSIAGVGWTAGLSSFAAIPFAQSIFYRLNGVGITQQVLSENQKLIANKFNQALGAMQTGFTTTNEAFHKVQDAVNNNAQALSKLASELSNTFGAISASIGDIIQRLDVLEQDAQIDRLINGRLTTLNAFVAQQLVRSESAALSAQLAKDKVNECVKAQSKRSGFCGQGTHIVSFVVNAPNGLYFMHVGYYPSNHIEVVSAYGLCDAANPTNCIAPVNGYFIKTNNTRIVDEWSYTGSSFYAPEPITSLNTKYVAPQVTYQNISTNLPPPLLGNSTGIDFQDELDEFFKNVSTSIPNFGSLTQINTTLLDLTYEMLSLQQVVKALNESYIDLKELGNYTYYNKWPWYIWLGFIAGLVALALCVFFILCCTGCGTNCMGKLKCNRCCDRYEEYDLEPHKVHVH
As to B1, the binding result was “no binding”.
